This note sets out measurements from paper PMC11610669, “A Spectroscopic Study on the Amyloid‐β Interaction with Clicked Peptide‐Porphyrin Conjugates: a Vision Toward the Detection of Aβ Peptides in Aqueous Solution” (Chembiochem, 2024).

B1: unmetalated porphyrin-peptide conjugate Ph-Pep (peptide)
peptide: Ac-GKPGKLVFF-NH2
modifications: not fully specified (residue 2)
notes: designed N-terminal stretch of Ac-GK(N3)PGKLVFF-NH2; the K is the azidolysine that carries the porphyrin; hydrophobic core Aβ16-20 (KLVFF) of amyloid-β; numbers count on: the Aβ peptide; MALDI-TOF (M+H)+ 1876.12; calcd. for C103H121N22O13 1875.24; Structure drawn in Scheme 1 and Scheme 3; source: synthetic peptide (MW-SPPS), clicked on resin to Pra-OMe (CuAAC), porphyrin coupled on resin, cleaved …
B2: copper porphyrin-peptide conjugate Cu-Ph-Pep (peptide)
peptide: Ac-GKPGKLVFF-NH2
modifications: not fully specified (residue 2); also: porphyrin as Cu(II) complex
notes: designed N-terminal stretch of Ac-GK(N3)PGKLVFF-NH2; the K is the azidolysine that carries the porphyrin; hydrophobic core Aβ16-20 (KLVFF) of amyloid-β; numbers count on: the Aβ peptide; MALDI-TOF (M+H)+ 1937.73; calcd. for C103H118CuN22O13 1936.77; Structure drawn in Scheme 1; source: synthetic peptide (MW-SPPS), clicked in solution to Cu-Ph-Pra-OMe (CuAAC), purified by preparative HPLC
B3: zinc porphyrin-peptide conjugate Zn-Ph-Pep (peptide)
peptide: Ac-GKPGKLVFF-NH2
modifications: not fully specified (residue 2); also: porphyrin as Zn(II) complex
notes: designed N-terminal stretch of Ac-GK(N3)PGKLVFF-NH2; the K is the azidolysine that carries the porphyrin; hydrophobic core Aβ16-20 (KLVFF) of amyloid-β; numbers count on: the Aβ peptide; MALDI-TOF (M+H)+ 1939.43; calcd. for C103H119ZnN22O13 1938.60; Structure drawn in Scheme 1 and Scheme 3; source: synthetic: Ph-Pep metalated with Zn(CH3COO)2, purified by RP-HPLC

The target in this test is T1, Amyloid-β 42 peptide (UniProt P05067 672-713).
T1 construct: Amyloid-β peptide 1-42 (Aβ42), the cut product of the amyloid precursor protein; numbers count on: the Aβ peptide; For GCI it was immobilised on a polycarboxylate chip from Na acetate pH 4.5; also called Aβ42; Aβ
T1 sequence (P05067 672-713): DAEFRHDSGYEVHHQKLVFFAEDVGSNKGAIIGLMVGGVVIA
Briefly: grating-coupled interferometry (GCI); Creoptix WAVE; Aβ42 immobilised on a 4PCH chip (1910±40 pg/mm^2); analytes injected as single-cycle 1:2 dilution series in PBS, 0.005 % Tween 20, 1 % DMSO, 0.2 mg/ml BSA; 25 °C; 100 μl/min; mass transport binding model with bulk correction. The note with it: both partners purified.
The molecule B1 registered a Kd of 60 ± 1 µM, a koff of 0.0819 s⁻¹ and a kon of 1370 M⁻¹ s⁻¹.

Molecule B2 came in with a Kd of 44 ± 6 µM, a koff of 0.0931 s⁻¹ and a kon of 2100 M⁻¹ s⁻¹.

For B3, the Kd is 46 ± 6 µM, the koff worked out at 0.002 s⁻¹ and the kon is 110 M⁻¹ s⁻¹.

Usually Kd stands for the concentration at which binding is half-saturated. A lower Kd goes with tighter binding. For orientation: koff means a measure of how fast the partners let go of each other. A high value points to a short-lived complex. One may read the kon as the rate constant with which the complex forms. Lower therefore signals slower complex formation.
